Columns and labels:
Format in all cases: cell-based, rat
p38-MAPK = assay: Phospho-p38 MAP kinase Western blot in cardiomyocytes
Experimental: (§1) rPMT promotes the activation of ERK1/2, JNK and p38-MAPK cascades. Incubations were for 24 hr in the presence of the indicated concentrations of rPMT. PMA (100 nM, 5 min) and sorbitol ([…], 5 min) were included as positive controls. Cell lysates were subjected to SDS-PAGE followed by Western blotting as described in Methods below. Phosphorylated forms of ERK1/2 (A), p38 MAP kinase (B) or JNK (C) were detected by specific anti-phospho-ERK1/2, -p38 MAP kinase or -JNK antibodies, respectively. Blots were stripped and subjected to immunoblot analysis with total ERK1/2 or p38 MAP kinase to normalize for minor variations in protein loading (Panels A and B). Top: representative autoradiograms (with each lane from a single gel exposed for the same duration). Bottom: quantification of each series of experiments (n=3).
(§2) Specific immunoreactivity for individual PKC isoforms was quantified according to methods described previously. For assays of MAPKs and AKT, cells were exposed to test agents as indicated in individual experimental protocols, washed three times with ice-cold calcium/magnesium-free Dulbecco's PBS (pH 7.1), scraped into ice-cold extraction buffer [20 mM β-glycerophosphate pH 7.5, 20 mM sodium fluoride, 2 mM EDTA, 0.2 mM sodium vanadate, 10 μg/ml aprotinin, 25 μg/ml leupeptin, 50 μg/ml PMSF, and 0.3% (v/v) β-mercaptoethanol], lysed by sonication, and centrifuged at 10,000 g for 10 min at 4° C. The supernatant was diluted in SDS-PAGE sample buffer, boiled for 5 min, and stored at −70° C. Western blot analysis was performed with antibodies that are selective for the phosphorylated (activated) forms of ERK1/2, p38-MAPK, JNK, AKT, and pan-PKC according to manufacturer's instructions. For each panel in each Figure, the results are from a single gel exposed for a uniform duration. Bands were detected by enhanced chemiluminescence and blots were quantified by laser scanning densitometry.

PKCα and PKCλ = assay: Immunoblot of PKCα/PKCλ abundance and distribution in cardiomyocytes; details: 24 hr stimulation
Experimental: (§3) rPMT selectively activates nPKC isoforms. Cardiomyocyte cultures were incubated in culture medium without or with NE (10 μM), rPMT (400 ng/ml) or PMA (100 nM) for 24 hr (Panels A and C) or 5 min (Panel B). Soluble extracts were prepared and separated by SDS-PAGE followed by immunodetection of total PKC isoform abundance with antibodies that are specific for the individual PKC isoforms (Panel A), or phosphorylated forms of PKC (largely PKCε) with a pan-phospho-PKC antibody (Panels B and C), as described in Methods below. GF109203 was included at 5 μM 30 min prior to stimulation as indicated.
(§4) Cells were maintained in culture in the presence of 10% FCS for 96 hr and then switched to serum-free medium for 24 hr prior to the addition of agonists as indicated. For PKC, extracts were prepared and subjected to SDS-PAGE to resolve individual isoforms according to methods described previously (14).
(§5) Specific immunoreactivity for individual PKC isoforms was quantified according to methods described previously. […] Bands were detected by enhanced chemiluminescence and blots were quantified by laser scanning densitometry.

PKC isoforms = assay: Immunoblot of PKC isoform partitioning and down-regulation in cardiomyocytes; details: 400 ng/ml, early time points 30 min-2 hr
Experimental: as §3, with “Cardiomyocyte cultures were incubated in culture medium without or with NE (10 μM), rPMT (400 ng/ml) or PMA (100 nM) for 24 hr (Panels A and C) or 5 min (Panel B).” left out
as §4, §5

cardiomyocytes = assay: Protein synthesis ([3H]phenylalanine incorporation) in cardiomyocytes; details: rPMT 400 ng/ml or NE 10 μM, 48 hr, serum-free
Experimental: rPMT mimics the effect of norepinephrine to promote cardiomyocyte hypertrophy. Cardiomyocytes were cultured in serum-free medium without or with rPMT (400 ng/ml) or norepinephrine (NE, 10 μM) for 48 hr. Cardiomyocytes were fixed, permeabilized, and stained with monoclonal anti-α-actinin sarcomeric (Panel A, magnification×100) or subjected to Northern blot analysis for measurements of steady-state ANF mRNA expression (Panel B). Effects of rPMT (black bars) and NE (gray bars) vs. vehicle (white bars) on sarcomeric organization (Panel C), cell size (Panel D), and protein synthesis (Panel E) are illustrated (n=3 for each).
As a second index of cardiomyocyte growth, relative rates of protein synthesis were measured as radiolabeled phenylalanine incorporation into cell protein. Cells were stimulated in serum-free medium with agonists (or vehicle as control) for 48 hr at 37° C. The medium was replaced with serum-free medium containing [^3H]phenylalanine (0.1 μCi/ml) and non-radioactive phenylalanine (0.3 mM, to minimize variations in the specific activity of the precursor pool responsible for protein synthesis) during the final 24 hr of stimulation. Cells were rinsed with PBS and incubated in 10% trichloroacetic acid for 30 min on ice. […] Aliquots of the SDS-soluble protein were counted in 5 ml of scintillant.

ERK1/2 = assay: Phospho-ERK1/2 Western blot in cardiomyocytes
Experimental: as §1
rPMT transactivation of the EGF receptor in cardiac fibroblasts, but not cardiomyocytes. Neonatal rat cardiomyocytes (Panel A) and cardiac fibroblasts (Panel B) were treated with rPMT (400 ng/ml) for 24 hr or EGF (50 ng/ml) for 5 min without or with AG1478 (2 μM, starting 30 min prior to stimulation). Cell lysates were subjected to SDS-PAGE followed by Western blotting with the anti-phospho-ERK1/2 antibody. Data are from a representative gel, with similar results obtained in 3 separate experiments.
as §2

JNK = assay: Phospho-JNK Western blot in cardiomyocytes
Experimental: as §1, §2

PKCδ and PKCε = assay: Immunoblot of nPKC isoform abundance in cardiomyocytes; details: 24 hr stimulation
Experimental: as §3, §4, §5

[1] = 24 hr, indicated concentrations
[2] = increased progressively for 24 hr
[3] = rPMT 24 hr, sorbitol 5 min positive control

B1: rPMT: recombinant Pasteurella multocida toxin, a Gαq agonist used as pharmacological probe (protein, UniProt P17452 1-1285, looked up)
Dermonecrotic toxin: MKTKHFFNSDFTVKGKSADEIFRRLCTDHPDKQLNNVKWKEVFINRFGQMMLDTPNPRKIVEKIINEGLEKQGLKNIDPETTYFNIFSSSDSSDGNVFHYNSLSESYRVTDACLMNIFVERYFDDWDLLNSLASNGIYSVGKEGAYYPDHDYGPEYNPVWGPNEQIYHSRVIADILYARSVWDEFKKYFMEYWQKYAQLYTEMLSDTFLAMAIQQYTRQTLTDEGFLMVCNTYYGNKEEVQITLLDIYGYPSTDIICIEQKGLPTPKVILYIPGGTQPFVEFLNTDDLKQWIAWHLKDNKHMVAFRKHFSLKQRQEGETFTGIDKALQYIAEESPEWPANKYILYNPTHLETENLFNIMMKRTEQRMLEDSDVQIRSNSEATRDYALSLLETFISQLSAIDMLVPAVGIPINFALSATALGLSSDIVVNGDSYEKRKYGIGSLVQSALFTGINLIPVISETAEILSSFSRTEEDIPAFFTEEQALAQRFEIVEEELHSISPDDPPREITDENLHKIRLVRLNNENQPLVVLRRLGGNKFIRIEPITFQEIKGSLVSEVINPVTNKTYYVSNAKLLGGSPYSPFRIGLEGVWTPEVLKARASVIGKPIGESYKRILAKLQRIHNSNILDERQGLMHELMELIDLYEESQPSSERLNAFRELRTQLEKALYLPEMEALKKQILQIPNKGSGAARFLLRTAMNEMAGKTSESTADLIRFALQDTVISAPFRGYAGAIPEAIDFPVKYVIEDISVFDKIQTNYWELPAYESWNEGSNSALLPGLLRESQSKGMLSKCRIIENSLYIGHSYEEMFYSISPYSNQVGGPYELYPFTFFSMLQEVQGDLGFEQAFATRNFFNTLVSDRLSLMENTMLLTESFDYTPWDAIYGDINYDEQFAAMSINERIEKCMNTYRGVAFQNSSKSIDFFLNNLTTFIDNGLTEIAISDLPYDIVQQEISQFLQGSNEWKTLDAMLFNLDKGDINGAFRKLLQSAKDNNIKFRAIGHSDNSVPPFNNPYKSLYYKGNIIAEAIEKLDREGQKFVVFADSSLLNSTPGTGRPMPGLVQYLKIPATVVDSDGAWQFLPDVASSRVPIEVTELENWQVLTPPQGKILGLKQFKLTAGFPTEQSRLPLLENSVSEDLREELMQKIDAIKNDVKMNSLVCMEAGSCDSVSPKVAARLKDMGLEAGMGASITWWRREGGMEFSHQMHTTASFKFAGKEFAVDASHLQFVHDQLDTTILILPVDDWALEIAQRNRAINPFVEYVSKTGNMLALFMPPLFTKPRLTRAL
For B1, the “expression of total p38-MAPK protein” value (p38-MAPK) was “does not significantly alter”, the “signaling through the p38-MAPK cascade (phosphorylation of terminal kinase)” value (p38-MAPK; [1]) was “dose-dependent increases” and the “time at which p38-MAPK activation is detectable” value (p38-MAPK; [2]) was 1 h. The “magnitude of p38-MAPK activation” value (p38-MAPK; [3]) was “more modest”, the “abundance and subcellular distribution of PKCα and PKCλ” value (PKCα and PKCλ) was “is not altered” and the “partitioning of PKC isoforms between soluble and particulate fractions” value (PKC isoforms) was “does not detectably alter”. For the same molecule, the “[3H]phenylalanine incorporation (protein synthesis)” value (cardiomyocytes) was “enhance [^3H]phenylalanine incorporation”, the “expression of total ERK1/2 protein” value (ERK1/2) was “does not significantly alter” and the “signaling through the ERK1/2 cascade (phosphorylation of terminal kinase)” value (ERK1/2; [1]) was “dose-dependent increases”. For the same molecule, the “magnitude of ERK1/2 activation” value (ERK1/2; comparable to acute stimulation with PMA) was “quite robust”, the “time at which ERK1/2 activation is detectable” value (ERK1/2; [2]) was 1 h and the “expression of total JNK protein” value (JNK) was “does not significantly alter”. For the same molecule, the “signaling through the JNK cascade (phosphorylation of terminal kinase)” value (JNK; [1]) was “dose-dependent increases”, the “time at which JNK activation is detectable” value (JNK; [2]) was 1 h and the “magnitude of JNK activation” value (JNK; [3]) was “more modest”. For the same molecule, the “abundance of PKC-δ and PKC-ε in the particulate fraction” value (PKCδ and PKCε) was “remains relatively preserved” and the “abundance of PKCδ and PKCε in the soluble fraction” value (PKCδ and PKCε) was “significantly reduce”.
